Laboratory results: publication PMC4381330, “Identification of a novel selective agonist of PPARγ with no promotion of adipogenesis and less inhibition of osteoblastogenesis” (Scientific Reports, 2015)

Legend:
[1] = target: GST-fused human PPARγ-LBD (human); test: AlphaScreen or HTRF; LanthaScreen TR-FRET coregulator peptide assay; serial concentrations of F12016 with GST-PPARγ-LBD, terbium-labeled anti-GST antibody and fluorescein-labeled peptide, 4 h; coactivator data as percent of the maximum of rosiglitazone
[2] = target: GST-fused human PPARγ-LBD (human); test: AlphaScreen or HTRF; LanthaScreen TR-FRET coregulator peptide assay; serial concentrations of rosiglitazone with GST-PPARγ-LBD, terbium-labeled anti-GST antibody and fluorescein-labeled peptide, 4 h; 520 nm/495 nm ratio

efficacy (maximum recruitment, % of rosiglitazone), with F12016 [1] [%] | efficacy (maximum recruitment, % of rosiglitazone), with rosiglitazone [2] [%] | Substance
10 | 100 | CREB-binding protein (CBP) peptide, fluorescein-labeled
26 | 100 | steroid receptor coactivator (SRC) 1 peptide, fluorescein-labeled
23 | 100 | steroid receptor coactivator (SRC) 3 peptide, fluorescein-labeled
17 | 100 | transcriptional intermediary factor 2 (TIF2) peptide, fluorescein-labeled
